Consider 2 molecules from doi:10.1101/2025.07.09.663820 (bioRxiv, 2025).

Assay [1] deals with CHIP13 extracellular domain (residues 33-253) (Lotus japonicus). As to the kind of experiment: SEC. (In general: In gel filtration, larger molecules generally elute earlier.)
Assay [2] concerns the target CHIP13 extracellular domain (residues 33-253) (Lotus japonicus, UniProt D3KU00, N-glycans (one on N143)).

Turning to “CHIP13 extracellular domain (residues 33-253) (domain or fragment)”, the stoichiometry N (in general, a count of units in the complex or per binding partner) in assay [1] is 2.

B1: Nb-aCHIP13 (VHH)
VHH: QLQLVESGGGLVQAGGSLRLSCATSGTTFRLNTMGWYRQAPGKQRELVATISRDFKTNYADSVKGRFTISRDNAKHTVDLQMNSLTPEDTAVYYCLVRDQREWYGPEYDNWGRGTQVTVSS
As to B1, binding in assay [2] was put at a Kd of 8.1 nM.
